Measured values from the supplement of paper PMC5998384.

What was measured:
HeLa Kyoto [1] = assay: solubility in G1/S (NP-40 vs SDS abundance) (log2 ratio); higher = more soluble; conditions: cell cycle stage: G1/S
HeLa Kyoto [2] = assay: melting temperature (median over replicates), in situ; higher = more thermally stable
HeLa Kyoto [3] = assay: solubility change mitosis vs G1/S (difference of NP-40 vs SDS log2 ratios) (log2 ratio difference); higher = more soluble in mitosis
HeLa Kyoto [4] = assay: thermal stability score vs G1/S (z-score of summed log2 fold changes over temperatures); higher = more thermally stable than in G1/S
[5] = cell cycle stage: early G1 (4.5 h after nocodazole release)
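For melting temperature (median over replicates), in situ in this document: HeLa Kyoto cells synchronized by double thymidine or nocodazole block, proteins quantified by TMT10plex mass spectrometry, three independent biological replicates.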
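For solubility change mitosis vs G1/S (difference of NP-40 vs SDS log2 ratios) in this document: synchronized HeLa Kyoto cells (double thymidine block for G1/S, nocodazole release for mitosis), protein amounts in NP-40 versus SDS lysates quantified by mass spectrometry, three biological replicates.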
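For solubility in G1/S (NP-40 vs SDS abundance) in this document: HeLa Kyoto cells arrested at G1/S by double thymidine block, proteins quantified by TMT10plex mass spectrometry in mild NP-40 versus SDS extracts, three biological replicates.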
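For thermal stability score vs G1/S (z-score of summed log2 fold changes over temperatures) in this document: synchronized HeLa Kyoto cells, proteins quantified by TMT10plex mass spectrometry, three biological replicates, mitosis taken 0.5 h after nocodazole release, G1/S directly after double thymidine block.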

Sequence | solubility in G1/S (log2) (HeLa Kyoto [1]) | melting temperature (HeLa Kyoto [2]; cell cycle stage: G1/S) [°C] | melting temperature (HeLa Kyoto [2]; cell cycle stage: mitosis) [°C] | solubility change mitosis (log2) (HeLa Kyoto [3]) | thermal stability score (HeLa Kyoto [4]; [5]) | thermal stability score (HeLa Kyoto [4]; cell cycle stage: mitosis)
MAVKKIAIFGATGQTGLTTLAQAVQAGYEVTVLVRDSSRLPSEGPRPAHVVVGDVLQAADVDKTVAGQDAVIVLLGTRNDLSPTTVMSEGARNIVAAMKAHGVDKVVACTSAFLLWDPTKVPPRLQAVTDDHIRMHKVLRESGLKYVAVMPPHIGDQPLTGAYTVTLDGRGPSRVISKHDLGHFMLRCLTTDEYDGHSTYPSHQYQ [BLVRB] | 0.417 | 50.4 | 50.7 | -0.116 | 4.14 | 2.47
MAVKVQTTKRGDPHELRNIFLQYASTEVDGERYMTPEDFVQRYLGLYNDPNSNPKIVQLLAGVADQTKDGLISYQEFLAFESVLCAPDSMFIVAFQLFDKSGNGEVTFENVKEIFGQTIIHHHIPFNWDCEFIRLHFGHNRKKHLNYTEFTQFLQELQLEHARQAFALKDKSKSGMISGLDFSDIMVTIRSHMLTPFVEENLVSAAGGSISHQVSFSYFNAFNSLLNNMELVRKIYSTLAGTRKDVEVTKEEFAQSAIRYGQVTPLEIDILYQLADLYNASGRLTLADIERIAPLAEGALPYNLAELQRQQSPGLGRPIWLQIAESAYRFTLGSVAGAVGATAVYPIDLVKTRMQNQRGSGSVVGELMYKNSFDCFKKVLRYEGFFGLYRGLIPQLIGVAPEKAIKLTVNDFVRDKFTRRDGSVPLPAEVLAGGCAGGSQVIFTNPLEIVKIRLQVAGEITTGPRVSALNVLRDLGIFGLYKGAKACFLRDIPFSAIYFPVYAHCKLLLADENGHVGGLNLLAAGAMAGVPAASLVTPADVIKTRLQVAARAGQTTYSGVIDCFRKILREEGPSAFWKGTAARVFRSSPQFGVTLVTYELLQRWFYIDFGGLKPAGSEPTPKSRIADLPPANPDHIGGYRLATATFAGIENKFGLYLPKFKSPSVAVVQPKAAVAATQ [SLC25A12] | -0.00588 | 56 | 57.1 | -0.128 | -0.889 | -1.22
MAVNVYSTSVTSDNLSRHDMLAWINESLQLNLTKIEQLCSGAAYCQFMDMLFPGSIALKKVKFQAKLEHEYIQNFKILQAGFKRMGVDKIIPVDKLVKGKFQDNFEFVQWFKKFFDANYDGKDYDPVAARQGQETAVAPSLVAPALNKPKKPLTSSSAAPQRPISTQRTAAAPKAGPGVVRKNPGVGNGDDEAAELMQQVNVLKLTVEDLEKERDFYFGKLRNIELICQENEGENDPVLQRIVDILYATDEGFVIPDEGGPQEEQEEY [MAPRE1] | 0.394 | 50.8 | 51.2 | 0.204 | -0.163 | -0.675
MAVSAGSARTSPSSDKVQKDKAELISGPRQDSRIGKLLGFEWTDLSSWRRLVTLLNRPTDPASLAVFRFLFGFLMVLDIPQERGLSSLDRKYLDGLDVCRFPLLDALRPLPLDWMYLVYTIMFLGALGMMLGLCYRISCVLFLLPYWYVFLLDKTSWNNHSYLYGLLAFQLTFMDANHYWSVDGLLNAHRRNAHVPLWNYAVLRGQIFIVYFIAGVKKLDADWVEGYSMEYLSRHWLFSPFKLLLSEELTSLLVVHWGGLLLDLSAGFLLFFDVSRSIGLFFVSYFHCMNSQLFSIGMFSYVMLASSPLFCSPEWPRKLVSYCPRRLQQLLPLKAAPQPSVSCVYKRSRGKSGQKPGLRHQLGAAFTLLYLLEQLFLPYSHFLTQGYNNWTNGLYGYSWDMMVHSRSHQHVKITYRDGRTGELGYLNPGVFTQSRRWKDHADMLKQYATCLSRLLPKYNVTEPQIYFDIWVSINDRFQQRIFDPRVDIVQAAWSPFQRTSWVQPLLMDLSPWRAKLQEIKSSLDNHTEVVFIADFPGLHLENFVSEDLGNTSIQLLQGEVTVELVAEQKNQTLREGEKMQLPAGEYHKVYTTSPSPSCYMYVYVNTTELALEQDLAYLQELKEKVENGSETGPLPPELQPLLEGEVKGGPEPTPLVQTFLRRQQRLQEIERRRNTPFHERFFRFLLRKLYVFRRSFLMTCISLRNLILGRPSLEQLAQEVTYANLRPFEAVGELNPSNTDSSHSNPPESNPDPVHSEF [GGCX] | 0.0675 | 53 | 53.1 | -0.054 | -1.48 | -3.01
